Source: article PMC6983407

What was measured:
[1] = target: recombinant FIPV-UU4 S protein (ectodomain of the spike protein of serotype I feline infectious peritonitis virus strain UU4, fused with the trimerization domain of T4 fibritin) (feline infectious peritonitis virus, serotype I, strain UU4 | bacteriophage T4); assay: native gel or EMSA
[2] = target: recombinant FIPV-UU4 S protein (ectodomain of the spike protein of serotype I feline infectious peritonitis virus strain UU4, fused with the trimerization domain of T4 fibritin) (feline infectious peritonitis virus, serotype I, strain UU4 | bacteriophage T4); assay: cryo-EM structure

## recombinant FIPV-UU4 S protein (ectodomain of the spike protein of serotype I feline infectious peritonitis virus strain UU4, fused with the trimerization domain of T4 fibritin) (natural protein)
[1]
  stoichiometry N: 3
[2]
  stoichiometry N: 3
